Assay [1] concerns the target glucagon receptor (human) (UniProt P47871).
Assay [2] has as its target human GLP-1 receptor (human) (UniProt P43220).
For assay [3], the target named is glucagon receptor (human) (UniProt P47871). The source holds these as a separate data set.
For assay [4], the target named is human GLP-1 receptor (human) (UniProt P43220). The source holds these as a separate data set.

Starred links: 1 amine or outer side, 2 acyl side, 3 side chain; linkers in the order of their positions; H or OH if unused. Non-standard residues stand in square brackets, D forms with d. Groups on a side chain read outwards from the residue. No end group written: not given here. *: point of attachment. γGlu = O=C(O)[C@H](CCC(=O)[*:2])N[*:1]; Palmitoyl = CCCCCCCCCCCCCCCC(=O)* Bounds are passed on as bounds.

Chain of human GLP-1 receptor (human) (P43220 24-463): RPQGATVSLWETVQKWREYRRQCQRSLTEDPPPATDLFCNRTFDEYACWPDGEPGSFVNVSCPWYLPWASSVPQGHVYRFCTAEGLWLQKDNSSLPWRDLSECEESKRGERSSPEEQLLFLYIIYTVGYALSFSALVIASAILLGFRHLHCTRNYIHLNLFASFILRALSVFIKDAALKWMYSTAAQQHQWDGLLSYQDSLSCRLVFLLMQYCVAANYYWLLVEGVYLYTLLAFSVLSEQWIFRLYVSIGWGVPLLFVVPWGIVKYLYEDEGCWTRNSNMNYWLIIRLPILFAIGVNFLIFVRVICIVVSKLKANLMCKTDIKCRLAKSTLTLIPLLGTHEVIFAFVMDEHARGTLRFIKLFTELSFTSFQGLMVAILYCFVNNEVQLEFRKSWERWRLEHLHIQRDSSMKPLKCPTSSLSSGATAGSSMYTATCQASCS
Chain of glucagon receptor (human) (P47871 26-477): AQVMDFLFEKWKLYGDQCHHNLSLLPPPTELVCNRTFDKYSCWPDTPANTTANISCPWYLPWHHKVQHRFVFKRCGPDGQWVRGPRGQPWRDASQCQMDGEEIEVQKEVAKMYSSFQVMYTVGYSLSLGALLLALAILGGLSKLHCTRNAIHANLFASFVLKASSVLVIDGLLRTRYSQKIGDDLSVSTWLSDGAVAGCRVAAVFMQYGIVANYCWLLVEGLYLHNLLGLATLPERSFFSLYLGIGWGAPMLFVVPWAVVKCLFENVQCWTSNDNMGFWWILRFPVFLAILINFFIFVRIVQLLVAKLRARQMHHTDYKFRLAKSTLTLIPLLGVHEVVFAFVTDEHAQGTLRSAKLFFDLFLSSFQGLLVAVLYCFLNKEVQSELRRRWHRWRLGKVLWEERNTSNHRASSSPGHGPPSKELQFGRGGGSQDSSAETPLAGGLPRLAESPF

HSQGTFTSDYSKYVEDRRAHDFVQWLMNT-NH2 [Peptide 2] returned an EC50 GCGR (nM); cAMP assay on CHO-JumpIn cells with human GCGR in assay [1] of 2.24 nM. In assay [2], the EC50 GLP1R (nM); cAMP assay on CHO-JumpIn cells with human GLP1R is 0.184 nM.
For HSQGTFTSDYSKYLDSRRAQDFVDWLINS-NH2 [Peptide 28], in that order: 0.016 nM and 0.007 nM.
With HSQGTFTSDYSKYLDIGRAQDFVQWLLNT-NH2 [Peptide 4], the EC50 GCGR (nM); cAMP assay on CHO-JumpIn cells with human GCGR in assay [1] is 0.026 nM. For the same molecule, the EC50 GLP1R (nM); cAMP assay on CHO-JumpIn cells with human GLP1R in assay [2] is 1.33 nM.
With HSQGTFFSDYSKYLDSRRAQDFVQWLLET-NH2 [Peptide 34], in assay [1], the EC50 GCGR (nM); cAMP assay on CHO-JumpIn cells with human GCGR was 0.027 nM. Also, in assay [2], the EC50 GLP1R (nM); cAMP assay on CHO-JumpIn cells with human GLP1R worked out at 51.9 nM.
For HSQGTFTSDYSKYLDSRMAYDFVQWLMNT-NH2 [Peptide 33], in that order: 0.079 nM and 0.059 nM.
For HSQGTFTSDYSKYLDSIRAQDFVQWLMDT-NH2 [Peptide 18], in that order: 0.037 nM and 0.056 nM.

B1: Peptide 36 (peptide)
peptide: H[dS]QGTFTSDK([γGlu-γGlu-Palmitoyl])SKYLDSRRAHDFVQWLLNT-NH2
modifications: N-terminus assumed
SMILES: CCCCCCCCCCCCCCCC(=O)N[C@@H](CCC(=O)N[C@@H](CCC(=O)NCCCC[C@H](NC(=O)[C@H](CC(=O)O)NC(=O)[C@H](CO)NC(=O)[C@@H](NC(=O)[C@H](Cc1ccccc1)NC(=O)[C@@H](NC(=O)CNC(=O)[C@H](CCC(N)=O)NC(=O)[C@@H](CO)NC(=O)[C@@H](N)Cc1c[nH]cn1)[C@@H](C)O)[C@@H](C)O)C(=O)N[C@@H](CO)C(=O)N[C@@H](CCCCN)C(=O)N[C@@H](Cc1ccc(O)cc1)C(=O)N[C@@H](CC(C)C)C(=O)N[C@@H](CC(=O)O)C(=O)N[C@@H](CO)C(=O)N[C@@H](CCCNC(=N)N)C(=O)N[C@@H](CCCNC(=N)N)C(=O)N[C@@H](C)C(=O)N[C@@H](Cc1c[nH]cn1)C(=O)N[C@@H](CC(=O)O)C(=O)N[C@@H](Cc1ccccc1)C(=O)N[C@H](C(=O)N[C@@H](CCC(N)=O)C(=O)N[C@@H](Cc1c[nH]c2ccccc12)C(=O)N[C@@H](CC(C)C)C(=O)N[C@@H](CC(C)C)C(=O)N[C@@H](CC(N)=O)C(=O)N[C@H](C(N)=O)[C@@H](C)O)C(C)C)C(=O)O)C(=O)O
Regarding B1, the EC50 hGCGR (nM); cAMP assay on CHO-JumpIn cells with human GCGR in assay [3] worked out at 0.023 nM. This molecule yielded an EC50 hGLP1 (nM); cAMP assay on CHO-JumpIn cells with human GLP1R in assay [4] of 0.05 nM.
In turn, HSQGTFTSDYSKYLDSRRAQDFVMTSMNT-NH2 [Peptide 26] had an EC50 GCGR (nM); cAMP assay on CHO-JumpIn cells with human GCGR in assay [1] greater than 200 nM. For the same molecule, the EC50 GLP1R (nM); cAMP assay on CHO-JumpIn cells with human GLP1R in assay [2] came to 8.96 nM.
For HSQGTFTSDYSKYLDSRRAQDFVQWLLDS-NH2 [Peptide 35], in that order: 0.0019 nM and 0.018 nM.
Take HSQGIFFSDYSKYLDSRRAQDFVQWLMNT-NH2 [Peptide 30]: the EC50 GCGR (nM); cAMP assay on CHO-JumpIn cells with human GCGR in assay [1] turned out to be 0.026 nM. In assay [2], this molecule returned an EC50 GLP1R (nM); cAMP assay on CHO-JumpIn cells with human GLP1R greater than 200 nM.
For HSQGTFTSDYRKYLDERAAWDFVQWLMNT-NH2 [Peptide 3], in that order: 1.35 nM and 0.427 nM.
For KALGQFTFTSDYSKYLDSRRAQDFVQWLMNT-NH2 [Peptide 21], in that order: 4.18 nM and 14.8 nM.
For HSQGTFTSDYSKYLDSKRAHDFVQWLLNT-NH2 [Peptide 24], in that order: 0.026 nM and 0.018 nM.
In assay [1], HSQGTFLHDYYYYLDSRRAQDFVQWLMDT-NH2 [Peptide 17] registered an EC50 GCGR (nM); cAMP assay on CHO-JumpIn cells with human GCGR of 0.527 nM. In addition, the EC50 GLP1R (nM); cAMP assay on CHO-JumpIn cells with human GLP1R in assay [2] is greater than 200 nM.

The values above are taken from article PMC5766609 (Scientific Reports, 2018).
